# Measurements from PMC11054746, “GRPR-Antagonists Carrying DOTAGA-Chelator via Positively Charged Linkers: Perspectives for Prostate Cancer Theranostics” (Pharmaceutics, 2024).
# Starred links: 1 amine or outer side, 2 acyl side, 3 side chain; linkers in the order of their positions; H or OH if unused. Non-standard residues stand in square brackets, D forms with d. Residues, ends and D or L forms follow the SMILES beside them. *: point of attachment. DOTAGA = O=C(O)CN1CCN(CC(=O)O)CCN(C(CCC(=O)*)C(=O)O)CCN(CC(=O)O)CC1; Sta = CC(C)C[C@H](N)[C@@H](O)CC(=O)O; X1 = O=C(CN1CCC(N[*:1])CC1)[*:2]; Sar = CNCC(=O)O
# Experiments:
# [1] = Radiochemical stability: indium release in PBS or with EDTA excess, by iTLC; assay type: physicochemical; conditions: room temperature, 0.2 M citric acid, mean ± sd, n = 3
# Experimental: The radiochemical yield was analyzed with instant thin layer chromatography (iTLC) strips (Agilent Technologies, Santa Clara, CA, USA), using 0.2 M citric acid buffer as a mobile phase (Rf = 0 for the radiolabeled peptide and Rf = 1 for free indium). The iTLC results were analyzed using Cyclone® Plus Phosphorimager (PerkinElmer, Hägersten, Sweden). The radiochemical stability was determined by incubating the radiolabeled compounds with phosphate-buffered saline (PBS) or a 1000-fold molar excess of ethylenediaminetetraacetic acid (EDTA) for 1 h at room temperature. The percentage of indium release was assessed by iTLC using 0.2 M citric acid as mobile phase. Stability tests were performed in triplicate for each compound.
# PC-3 cells [2] = test: In vitro binding specificity assay (uptake with and without GRPR blocking by NOTA-PEG2-RM26); assay type: cell-based, human; conditions: 1 nM radiotracer, 1 h, unblocked
# Experimental: The in vitro binding assay was performed on PC-3 cells seeded in 6-well plates (1.15 × 10^6 cells/well). Media containing a GRPR-blocking agent (NOTA-PEG2-RM26, 1 μM) were added to half of the wells. The plates were incubated at room temperature for 10 min and the medium containing the radiotracer under investigation was added to all wells in a final concentration of 1 nM. The plates were incubated for 1 h and then treated with 0.25% trypsin-EDTA to detach cells. The cells were collected and their activity was measured using the gamma counter.
# human GRPR = molecular target: T1, human GRPR (Homo sapiens, UniProt P30550); test: Affinity measurements in real time (LigandTracer) on PC-3 cells; assay type: binding; conditions: room temperature, 1:2 fitting interaction model
# T1 construct: host or cells: PC-3 human prostate adenocarcinoma cells
# Experimental: The association curves were recorded at 1 nM and 3 nM of the radiolabeled peptides for 300 min. After reaching the plateau, the medium containing the radioligand was replaced with fresh medium and the dissociation curve was measured for about 16 h. The obtained sensorgrams were analyzed using TracerDrawer (Ridgeview Instruments AB, Uppsala, Sweden) and the dissociation constants (KD) were calculated.
# PC-3 cells [3] = test: Cellular internalization; assay type: cell-based, human; conditions: 1 nM, acid wash, mean of 3 dishes ± sd, normalized to maximum cell association at 24 h
# Experimental: For the cellular internalization assay, PC-3 cells (1 × 10^6 cells/dish) were used. The cells were incubated with 1 mL (1 nM) of solution containing the radiolabeled peptide under evaluation. At the 4 h and 24 h time points, the cells were treated with an acid wash (0.2 M glycine buffer with 0.15 M NaCl and 4 M urea, pH 2) for 5 min on ice to remove the membrane-bound peptide. After collection of acid fractions, the cells were treated with 1 M NaOH for at least 30 min and the cell debris were scraped and collected. The activity content in samples was measured using the gamma counter.
# in vivo = test: in vivo; parameters: species or system BALB/C nu/nu mice; conditions: BALB/C nu/nu, mouse, iv, total radioactivity; for tissue to tissue ratio at 4 h / tissue to tissue ratio at 24 h: Tumor-to-organ ratio
# Experimental: (§1) All in vivo studies were performed following European guidelines on laboratory animal protection. The in vivo stability experiments were carried out in healthy male Swiss albino mice; the study protocol was approved by the Department of Agriculture and Veterinary Service of the Prefecture of Athens (protocol number #440448, 01-06-2021). The biodistribution, in vivo targeting specificity assay, and SPECT/CT imaging experiments were carried out on BALB/C nu/nu mice. The Ethics Committee for Animal Research in Uppsala (Sweden) approved the latter in vivo animal studies (permit number 00473/21). The BALB/C nu/nu mice were implanted with GRPR-positive prostate cancer xenografts by subcutaneous injection on the right hind leg of PC-3 cells suspended in PBS (7 × 10^6 cells/mouse) four weeks before the biodistribution studies.
# (§2) The mice were iv injected with 40 pmol peptide (30 kBq in a total volume of 100 μL 1% bovine serum albumin (BSA) in PBS). […] At the indicated time points, mice were euthanized under anesthesia. The organs of interest were collected, weighed, and the sample radioactivity content was measured on the gamma counter. The percentage of injected activity per gram (%IA/g) of collected tumors, organs and tissues, the %IA for the remaining gastrointestinal tract and carcass, as well as the tumor-to-organ ratios (T/O) were calculated.
# PC-3 xenografts = test: in vivo; parameters: species or system BALB/C nu/nu mice; conditions: mouse
# Experimental: as §1, §2
# [4] = 40 pmol, GI (gastrointestinal tract, GIT) uptake
# T1 sequence (P30550 whole entry): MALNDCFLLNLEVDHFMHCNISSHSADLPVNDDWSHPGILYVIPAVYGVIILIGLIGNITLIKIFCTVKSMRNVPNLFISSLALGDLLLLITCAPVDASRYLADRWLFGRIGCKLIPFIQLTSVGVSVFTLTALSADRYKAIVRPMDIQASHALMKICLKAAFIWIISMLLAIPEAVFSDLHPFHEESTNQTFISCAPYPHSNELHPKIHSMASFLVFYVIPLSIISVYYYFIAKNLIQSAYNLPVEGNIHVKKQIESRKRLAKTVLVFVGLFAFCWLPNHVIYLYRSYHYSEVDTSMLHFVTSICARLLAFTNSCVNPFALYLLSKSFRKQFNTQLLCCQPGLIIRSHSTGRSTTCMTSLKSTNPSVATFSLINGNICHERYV
smiles,measurement,setting,value
"CC(C)C[C@H](NC(=O)C[C@H](O)[C@H](CC(C)C)NC(=O)[C@H](Cc1c[nH]cn1)NC(=O)CN(C)C(=O)[C@@H](NC(=O)[C@H](C)NC(=O)[C@H](Cc1c[nH]c2ccccc12)NC(=O)[C@H](CCC(N)=O)NC(=O)[C@@H](Cc1ccccc1)NC(=O)CN1CCC(NC(=O)[C@H](CCCNC(=N)N)NC(=O)[C@H](CCCNC(=N)N)NC(=O)CCC(C(=O)O)N2CCN(CC(=O)O)CCN(CC(=O)O)CCN(CC(=O)O)CC2)CC1)C(C)C)C(N)=O (stereo partly drawn) [[^111In]In-AU-RM26-M4, metal not drawn] ({DOTAGA}-RR[X1][dF]QWAV[Sar]H[Sta]L-NH2)","released [111In]In3+, ×1000 EDTA (1 h)",[1]; 1000-fold molar excess of EDTA,3.2 ± 0.1% (3)
same,"released [111In]In3+, PBS","[1]; incubation in PBS, 1 h",1.9 ± 0.1% (3)
same,"cell uptake, fold higher than the other analogs of the series",PC-3 cells [2],2 fold
same,ka1,human GRPR; association at 1 and 3 nM,344000 M⁻¹ s⁻¹
same,ka2,human GRPR; association at 1 and 3 nM,346000 M⁻¹ s⁻¹
same,kd1,human GRPR; dissociation about 16 h,2e-06 s⁻¹
same,kd2,human GRPR; dissociation about 16 h,2.08e-06 s⁻¹
same,internalized fraction at 24 h,PC-3 cells [3],33 ± 7%
same,tissue uptake at 4 h,"in vivo; 40 pmol, Blood uptake",0.122 ± 0.0013 %ID/g
same,tissue uptake at 24 h,"in vivo; 40 pmol, Blood uptake",0.02 ± 0.01 %ID/g
same,tissue uptake at 4 h,"in vivo; 40 pmol, Bone uptake",0.13 ± 0.04 %ID/g
same,tissue uptake at 24 h,"in vivo; 40 pmol, Bone uptake",0.09 ± 0.02 %ID/g
same,tissue uptake dose at 4 h,"in vivo; 40 pmol, Carcass (whole body) uptake",3 ± 1.5 %ID
same,tissue uptake dose at 24 h,"in vivo; 40 pmol, Carcass uptake",0.8 ± 0.2 %ID
same,tissue uptake dose at 4 h,in vivo; [4],1.4 ± 0.3 %ID
same,tissue uptake dose at 24 h,in vivo; [4],0.15 ± 0.03 %ID
same,tissue uptake at 4 h,"in vivo; 40 pmol, Kidneys uptake",7 ± 1 %ID/g
same,tissue uptake at 24 h,"in vivo; 40 pmol, Kidneys uptake",2.7 ± 0.1 %ID/g
same,tissue uptake at 4 h,"in vivo; 40 pmol, Liver uptake",0.6 ± 0.11 %ID/g
same,tissue uptake at 24 h,"in vivo; 40 pmol, Liver uptake",0.31 ± 0.07 %ID/g
same,tissue uptake at 4 h,"in vivo; 40 pmol, Lungs uptake",0.2 ± 0.08 %ID/g
same,tissue uptake at 24 h,"in vivo; 40 pmol, Lungs uptake",0.06 ± 0.02 %ID/g
same,tissue uptake at 4 h,"in vivo; 40 pmol, Muscle uptake",0.06 ± 0.02 %ID/g
same,tissue uptake at 24 h,"in vivo; 40 pmol, Muscle uptake",0.02 ± 0.01 %ID/g
same,tissue uptake at 4 h,"in vivo; 40 pmol, Pancreas uptake",3.4 ± 0.6 %ID/g
same,tissue uptake at 24 h,"in vivo; 40 pmol, Pancreas uptake",0.36 ± 0.08 %ID/g
same,tissue uptake at 4 h,"in vivo; 40 pmol, Small Int uptake",1.1 ± 0.3 %ID/g
same,tissue uptake at 24 h,"in vivo; 40 pmol, Small Int uptake",0.11 ± 0.03 %ID/g
same,tissue uptake at 4 h,"in vivo; 40 pmol, Spleen uptake",0.23 ± 0.07 %ID/g
same,tissue uptake at 24 h,"in vivo; 40 pmol, Spleen uptake",0.14 ± 0.04 %ID/g
same,tissue uptake at 4 h,"in vivo; 40 pmol, Tumor uptake",15 ± 5 %ID/g
same,tissue uptake at 24 h,"in vivo; 40 pmol, Tumor uptake",7 ± 3 %ID/g
same,tissue to tissue ratio at 4 h,"in vivo; 40 pmol, Blood",123 ± 43
same,tissue to tissue ratio at 24 h,"in vivo; 40 pmol, Blood",369 ± 228
same,tissue to tissue ratio at 4 h,"in vivo; 40 pmol, Bone",119 ± 40
same,tissue to tissue ratio at 24 h,"in vivo; 40 pmol, Bone",79 ± 25
same,tissue to tissue ratio at 4 h,"in vivo; 40 pmol, Kidneys",2.3 ± 0.9
same,tissue to tissue ratio at 24 h,"in vivo; 40 pmol, Kidneys",2.6 ± 0.9
same,tissue to tissue ratio at 4 h,"in vivo; 40 pmol, Liver",25 ± 11
same,tissue to tissue ratio at 24 h,"in vivo; 40 pmol, Liver",23 ± 9
same,tissue to tissue ratio at 4 h,"in vivo; 40 pmol, Lungs",90 ± 59
same,tissue to tissue ratio at 24 h,"in vivo; 40 pmol, Lungs",120 ± 61
same,tissue to tissue ratio at 4 h,"in vivo; 40 pmol, Muscle",307 ± 168
same,tissue to tissue ratio at 24 h,"in vivo; 40 pmol, Muscle",347 ± 176
same,tissue to tissue ratio at 4 h,"in vivo; 40 pmol, Pancreas",4 ± 1
same,tissue to tissue ratio at 24 h,"in vivo; 40 pmol, Pancreas",20 ± 5
same,tissue to tissue ratio at 4 h,"in vivo; 40 pmol, Small Int",15 ± 7
same,tissue to tissue ratio at 24 h,"in vivo; 40 pmol, Small Int",67 ± 35
same,tissue to tissue ratio at 4 h,"in vivo; 40 pmol, Spleen",71 ± 37
same,tissue to tissue ratio at 24 h,"in vivo; 40 pmol, Spleen",54 ± 30
same,tissue uptake dose at 4 h,"in vivo; Carcass uptake, Block",1.6 ± 0.3 %ID
same,tissue uptake dose at 4 h,"in vivo; GI (gastrointestinal tract, GIT) uptake, Block",0.5 ± 0.2 %ID
same,Blood uptake,"PC-3 xenografts; BALB/C nu/nu, iv, 40 pmol, 4 h",0.125 ± 0.0004 %IA/g
same,kidney uptake at 24 h pi retained as % of the 4 h renal value,PC-3 xenografts,< 38%
same,pancreas uptake at 24 h pi as % of the initial 4 h uptake,PC-3 xenografts,less than 10%
